Patent US20140296146A1, “Thermostable Inhibitors of Activation of the Blood Clotting System Through Contact with Foreign Surfaces” (Synapse B.V., priority 2011, published 2014)
Substitutions are numbered along the chain they refer to. Several values for one entry are separate records, joined by “and”; a condition that tells them apart may be missing. Equal entries are not always repeated. Bridges are numbered along the chain shown (N, C = ends). Where no end group is shown, it is not given here.

T1: h-FXIIa (human), P00748
T1 chain: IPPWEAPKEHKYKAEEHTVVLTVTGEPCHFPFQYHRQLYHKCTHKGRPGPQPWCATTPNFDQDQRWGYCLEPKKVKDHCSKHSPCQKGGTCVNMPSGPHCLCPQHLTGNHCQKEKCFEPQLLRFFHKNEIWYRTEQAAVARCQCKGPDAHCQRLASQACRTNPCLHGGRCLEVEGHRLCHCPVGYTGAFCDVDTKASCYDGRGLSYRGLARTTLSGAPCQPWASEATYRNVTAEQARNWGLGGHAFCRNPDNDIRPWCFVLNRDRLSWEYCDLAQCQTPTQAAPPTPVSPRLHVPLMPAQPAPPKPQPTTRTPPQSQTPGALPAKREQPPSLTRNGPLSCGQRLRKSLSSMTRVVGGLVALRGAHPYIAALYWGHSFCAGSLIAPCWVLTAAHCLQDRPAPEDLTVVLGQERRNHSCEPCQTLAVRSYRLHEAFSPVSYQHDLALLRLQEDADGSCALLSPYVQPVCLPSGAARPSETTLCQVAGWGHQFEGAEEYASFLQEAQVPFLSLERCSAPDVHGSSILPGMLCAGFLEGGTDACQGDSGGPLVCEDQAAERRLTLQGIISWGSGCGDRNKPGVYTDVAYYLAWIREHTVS

T2: h-FXIIa (human, UniProt P00748 20-615)
T2 construct: also called factor XIIa
T2 sequence (looked up): T1 chain

B1: TICA 1 (peptide)
peptide: RVCPRILMKCKKDSDCLAECVCLEHGYCG
modifications: not checked
B2: PCTI (peptide)
peptide: RVCGIGPRPRLPWPRILMKCKKDSDCLAECVCLEHGYCG
modifications: not checked
B3: AAA-TICA1 (peptide)
peptide: AAARVCPRILMKCKKDSDCLAECVCLEHGYCG
modifications: not checked
B4: TICA 3 (peptide)
peptide: B3 peptide with A1H, A2E, A3E
notes: Synthetic congener; also called HEE-TICA1
B5: TICA 5 (peptide)
peptide: HEERVCPKILMECKKDSDCLAECICLEHGYCG
notes: Synthetic congener; also called HEE-TICA4
B6: TICA1-AAA (peptide)
peptide: RVCPRILMKCKKDSDCLAECVCLEHGYCGAAA
modifications: not checked
B7: TICA1 with 2 disulfide bonds (C3-C20, C16-C28) (peptide)
peptide: RVCPRILMKAKKDSDCLAECVALEHGYCG
modifications: disulfide 16-28, 3-20
B8: TICA 2 (peptide)
peptide: RVCPRILMECKKDSDCLAECVCLEHGYCG
modifications: disulfide (positions not given here)
notes: Synthetic, folded peptide
B9: TICA 4 (peptide)
peptide: RVCPKILMECKKDSDCLAECICLEHGYCG
modifications: disulfide (positions not given here)
notes: Synthetic congener

How the values were obtained:
[1] = TICA1 Ala-scan with intact disulfides, activity vs TICA1; details: single amino acid substituted by alanine
Text: Every single amino acid was substituted by alanine except for cysteine. […] See also FIG. 6.

[2] = biological target: T1, h-FXIIa (human), …; assay: activity of TICA1 disulfide variants (FIG. 5), reference; assay not named
[3] = biological target: T1, h-FXIIa (human), …; assay: FXIIa activity, total FXIIa 9.33 nM, 306 nM TICA1 added after 60 minutes at 95° C.
[4] = biological target: T1, h-FXIIa (human), …; assay: S2302 hydrolysis by h-FXIIa (5.01 nM); inhibitor kept at -80° C. (reference)
[5] = biological target: T1, h-FXIIa (human), …; assay: residual inhibitor activity after 60 minutes at 95° C., calculated from free FXIIa (total 9.33 nM)
[6] = biological target: T1, h-FXIIa (human), …; assay: S2302 hydrolysis by h-FXIIa (5.01 nM); inhibitor 30 min 95° C., against -80° C.
[7] = biological target: T1, h-FXIIa (human), …; assay: S2302 hydrolysis by h-FXIIa (5.01 nM); inhibitor at RT during 72 hrs, against -80° C.
[8] = biological target: T1, h-FXIIa (human), …; assay: S2302 hydrolysis by h-FXIIa (5 nM), fit of residual activity; dissociation constant of the complex
[9] = biological target: T1, h-FXIIa (human), …; assay: S2302 hydrolysis by h-FXIIa, fit of residual activity
[10] = biological target: T1, h-FXIIa (human), …; assay: cell-based or functional assay
[11] = biological target: T1, h-FXIIa (human), …; assay: S2302 hydrolysis by h-FXIIa (5.01 nM); inhibitor kept at -80° C.
[12] = biological target: T1, h-FXIIa (human), …; assay: S2302 hydrolysis by h-FXIIa (5.01 nM); inhibitor at RT during 72 hrs
[13] = biological target: T1, h-FXIIa (human), …; assay: S2302 hydrolysis by h-FXIIa (5.01 nM); inhibitor 30 min 95° C.
h-FXIIa [14] = biological target: T2, h-FXIIa; assay: as above
Description: (§1) Stock FXIIa was diluted 700× in BSA5. The inhibitor was diluted in BSA5 as indicated. Wells contained 70 μl diluted FXIIa (5 nM final), 70 μl inhibitor and 20 μl S2302 (475 or 462.5 μM final). The reaction was started after 5 min heating on the heating plate with S2302. Filters 405 nm and 490 nm reference. Found ΔmA/min was multiplied by 2.14 to get the figure for a 1 cm path.

h-FXIIa [15] = biological target: T2, h-FXIIa; assay: S2302 hydrolysis by F.XIIa; before heating
h-FXIIa [16] = biological target: T2, h-FXIIa; assay: S2302 hydrolysis by h-FXIIa, fit of residual activity
Description: as §1, with “mΔA/min” for “ΔmA/min”
(§2) in which E=[FXIIa], Ki is the dissociation constant, I=[Inhibitor], kcat and Km are Michaelis constants and S=[S2302].

h-FXIIa [17] = biological target: T2, h-FXIIa; assay: S2302 hydrolysis by h-FXIIa (5.01 nM); inhibitor at RT during 72 hrs, against -80° C.
Description: as §1

h-FXIIa [18] = biological target: T2, h-FXIIa; assay: S2302 hydrolysis by h-FXIIa (5.01 nM); inhibitor at RT during 72 hrs
Description: as §1

h-FXIIa [19] = biological target: T2, h-FXIIa; assay: S2302 hydrolysis by h-FXIIa (5.01 nM); inhibitor kept at -80° C.
Description: as §1

h-FXIIa [20] = biological target: T2, h-FXIIa; assay: S2302 hydrolysis by h-FXIIa (5.01 nM); inhibitor 30 min 95° C., against -80° C.
Description: as §1

h-FXIIa [21] = biological target: T2, h-FXIIa; assay: S2302 hydrolysis by h-FXIIa (5 nM), fit of residual activity; dissociation constant of the complex
Description: as §1, with “mΔA/min” for “ΔmA/min”
as §2

h-FXIIa [22] = biological target: T2, h-FXIIa; assay: S2302 hydrolysis by h-FXIIa (5.01 nM); inhibitor kept at -80° C. (reference)
Description: as §1

h-FXIIa (human) = h-FXIIa (human) (UniProt P00748); assay: activity of TICA1 disulfide variants against TICA1 with 3 disulfides (FIG. 5); assay not named

Row | Molecule | Ki [8] | Ki (h-FXIIa [14]) | Ki (h-FXIIa [15]) | Ki (h-FXIIa [16]) | Res. Act. (%) (h-FXIIa [17]) | Ki (h-FXIIa [18]) | Ki (h-FXIIa [19]) | Res. Act. (%) (h-FXIIa [20]) | Ki (h-FXIIa [21]) | Res. Act. (%) (h-FXIIa [22]) | other results
1 | RVCARILMKCKKDSDCLAECVCLEHGYCG [TICA1 Ala-scan analogue] |  |  |  |  |  |  |  |  |  |  | Activity vs TICA1 [1]: 9.0%
2 | RVCPAILMKCKKDSDCLAECVCLEHGYCG [TICA1 Ala-scan analogue] |  |  |  |  |  |  |  |  |  |  | Activity vs TICA1 [1]: 0.009%
3 | AVCPRILMKCKKDSDCLAECVCLEHGYCG [TICA1 Ala-scan analogue] |  |  |  |  |  |  |  |  |  |  | Activity vs TICA1 [1]: 7.5%
4 | B1 | 0.0255 µM |  |  |  |  |  |  |  |  |  | activity (%) [2]: 100%; Free FXIIa [3]: 3.93 nM; Res. Act. (%) [4]: 100%; Residual activity (%) [5]: 81.7%; Res. Act. (%) [6]: 94%; Res. Act. (%) [7]: 102%; Ki [9]: 0.0255 µM; Activity of FXIIa (mA/min) [10]: 33.5 mA/min; Ki [11]: 0.026 µM; Ki [12]: 0.026 µM; Ki [13]: 0.024 µM
5 | B2 | 469 µM |  |  |  |  |  |  |  |  |  | 
6 | B3 | 0.104 µM |  |  |  |  |  |  |  |  |  | 
7 | B4 |  | 3.18 µM | 10.1 µg/mL and 3.09 µM | 3.09 µM | 101% | 3.13 µM | 3.09 µM | 103% | 3.09 µM | 100% | 
8 | B5 |  | 179 µM | 556 µg/mL and 171 µM | 171 µM | 96% | 165 µM | 171 µM | 105% | 171 µM | 100% | 
9 | B6 | 0.377 µM |  |  |  |  |  |  |  |  |  | 
10 | B7 |  |  |  |  |  |  |  |  |  |  | activity (%) (h-FXIIa (human)): 6.8%
11 | B8 |  | 0.108 µM | 0.355 µg/mL and 109 nM | 0.109 µM | 105% | 0.114 µM | 0.109 µM | 99% | 0.109 µM | 100% | 
12 | B9 |  | 1.34 µM | 4.62 µg/mL and 1.42 µM | 1.42 µM | 98% | 1.4 µM | 1.42 µM | 94% | 1.42 µM | 100% | 
